Test results: patent publication US20230070731A1, “COMPOSITIONS FOR SMALL MOLECULE CONTROL OF PRECISE BASE EDITING OF TARGET NUCLEIC ACIDS AND METHODS OF USE THEREOF” (THE TRUSTEES OF THE UNIVERSITY OF PENNSYLVANIA, priority 2020, published 2023)

What was measured:
[1] = tested on: fluorescein (FAM)-labeled oligonucleotide substrate containing a single cytosine; experiment: In vitro DNA deaminase oligonucleotide assay; assay type: biochemical; settings: result in words
Protocol: For in vitro assays, purified intact, optGFP-inserted, or split DNA deaminases were expressed in BL21(DE3) cells that co-express the Trigger Factor (TF) chaperone, as previously described^33. Briefly, 600 mL cultures were grown to an OD600 of 0.6 at 37° C. Cultures were shifted to 16° C. for 16 hours after induction with 1 mM IPTG. For AID variants, the pelleted cells were resuspended in 50 mM Tris-Cl (pH 7.5) 150 mM NaCl, 10% glycerol (wash buffer) and lysed through sonication. The soluble fraction was filtered after high-speed centrifugation and incubated with 3 mL of Amylose Resin (NEB) for 1 hr at 4° C. The resin was washed extensively prior to elution with wash buffer plus 10 mM maltose. Total protein was quantified by comparison to a BSA standard curve. For A3A variants, the pelleted cells were resuspended in 50 mM Tris-Cl (pH 7.5) 150 mM NaCl, 10% glycerol, 25 mM imidazole (wash buffer) and lysed through sonication. The soluble fraction was filtered after high-speed centrifugation and incubated with 3 mL of HisPur cobalt resin (Thermo) for 1 hr at 4° C. […]
For the in vitro assay, a fluorescein (FAM)-labeled oligonucleotide substrate was used containing a single cytosine, along with a product control oligonucleotide containing uracil at the same location. […] Product formation was quantified using ImageJ by taking the ratio of substrate to product under each condition. […]

BL21(DE3) E. coli = experiment: Bacterial DNA deaminase rifampicin mutagenesis assay (acquired rifampin resistance); assay type: cell-based; settings: expression in E. coli
Protocol: In initial studies, a foreign protein/domain was inserted into an enhanced hyperactive version of AID described in U.S. patent application Ser. No. 16/025,261 (See for example, SEQ ID NO: 20 of the '261 patent application) which is incorporated herein by reference as though set forth in full. This mutant version of the human DNA deaminase AID, involved in antibody maturation was assessed and the loop regions which appeared to be tolerant to insertion of control elements (e.g., Green Fluorescent Protein GFP fragments) were identified as described hereinbelow. Several candidate locations for insertion were identified. We used an E. coli-based rifampin mutagenesis assay to evaluate activity (See Kohli et al., J Biol Chem. (2009) 284:pages 22898-904). In this assay we measure the activity level of a mutator by measuring how many E. coli can be turned resistant to the antibiotic rifampin when the enzyme is turned on.
The mutation frequency of various DNA deaminases, including insertion constructs, were determined using a modified version of previously reported rifampin mutagenesis assay (Kohli, JBC 2009). […] The mutation frequencies were then calculated by the ratio of rifampicin resistant colonies to total population. […]

Row | Substance | in vitro deaminase activity [1] | Rif^R increase relative to catalytically inactive mutant AID(E58A) (BL21(DE3) E. coli) [fold]
1 | A3A: human A3 enzyme APOBEC3A DNA deaminase | tolerated optGFP insertion | 
2 | AID(WT): unmutated AID (activation induced deaminase) |  | 12
